# Results as given in paper doi:10.1101/2024.07.11.603087, “Rational Design of a Flavoenzyme for Aerobic Nicotine Catabolism” (bioRxiv, 2024).
# B1: PnaoΔN30 (residues 31 to 497) (enzyme, Pseudomonas putida S16, UniProt F8G0P1 31-496, looked up)
# chain: IASQLLTLSAPAEAAVKTNVGPSRAGVGYDVIVIGGGFAGVTAAREASRSGLKTLILEGRSRLGGRTFTSKLQNQKVELGGTWVHWTQPNVWTEIMHYGLEVEETVGLANPETVIWVTEDNVKRAPAAEAFEIFGSACNEYYKEARNIYPRPFEPFFERKKLQHVDGLSAADYLEKLPLTREQKDMMDSWLSGNGHNYPETIAYSEIMRWFALSNFNMPTMFDSIARYKIKTGTHSLLEAIMADGNSEVKLSTPVTKVNQDKDKVTVTTEDGVFTASAVIVAVPINTLHDIEYSPKLSAAKVDMGSQRHAGAGVKGYIRVKQNVGNVMTYAPARNKLTPFTSVFTDHVDESGTLLIAFSADPKLIDINDIKAVEKALQPLLPGVEVTASYGYDWNLDPFSKGTWCTYRPNQTTRYLTELQKREGRLFFAGSDMANGWRGFIDGAIENGREVGHQVATYLKRENDNA
# notes: Pnao, flavin-dependent pseudooxynicotine oxidase of Pseudomonas putida S16, N-terminal truncation of 30 residues, residues 31 to 497; Cloned into pET-28a between NcoI and XhoI, which would likely give a C-terminal His6 tag (surmised); also called pseudooxynicotine amine oxidase; source: E. coli BL21(DE3), purified (Ni2+-NTA, size-exclusion chromatography)
# Target: the molecule itself
# Assay: SEC; Superdex 200 Increase 10/300 GL; molecular weight from elution, consistent with two molecules
protein,measurement,value
B1,stoichiometry N,2
